Reference: paper PMC8368726, “Granzyme A Produced by γ9δ2 T Cells Activates ER Stress Responses and ATP Production, and Protects Against Intracellular Mycobacterial Replication Independent of Enzymatic Activity” (Frontiers in Immunology, 2021)

Target: the molecule itself
Test: non-reducing SDS gel electrophoresis (silver stain and western blot); purified GzmA run under non-reducing conditions; homodimer at ~50 kDa and polymers of it

B1: Native human Granzyme A (enzyme, UniProt P12544 29-262, looked up)
chain: IIGGNEVTPHSRPYMVLLSLDRKTICAGALIAKDWVLTAAHCNLNKRSQVILGAHSITREEPTKQIMLVKKEFPYPCYDPATREGDLKLLQLMEKAKINKYVTILHLPKKGDDVKPGTMCQVAGWGRTHNSASWSDTLREVNITIIDRKVCNDRNHYNFNPVIGMNMVCAGSLRGGRDSCNGDSGSPLLCEGVFRGVTSFGLENKCGDPRGPGVYILLSKKHLNWIIMTIKGAV
notes: Granzyme A (GzmA), native human protein, commercially obtained; Some monomer at ~25 kDa is seen beside the homodimer; also called NhGzmA; native GzmA; source: bought: TheraTest (Lombard, IL)
binding result: binds
